Publication PMC10491969 (Journal of Advanced Research, 2022)

Target: T1, Recombinant human TRAF2 protein (human, UniProt Q12933 1-501)
T1 sequence (looked up): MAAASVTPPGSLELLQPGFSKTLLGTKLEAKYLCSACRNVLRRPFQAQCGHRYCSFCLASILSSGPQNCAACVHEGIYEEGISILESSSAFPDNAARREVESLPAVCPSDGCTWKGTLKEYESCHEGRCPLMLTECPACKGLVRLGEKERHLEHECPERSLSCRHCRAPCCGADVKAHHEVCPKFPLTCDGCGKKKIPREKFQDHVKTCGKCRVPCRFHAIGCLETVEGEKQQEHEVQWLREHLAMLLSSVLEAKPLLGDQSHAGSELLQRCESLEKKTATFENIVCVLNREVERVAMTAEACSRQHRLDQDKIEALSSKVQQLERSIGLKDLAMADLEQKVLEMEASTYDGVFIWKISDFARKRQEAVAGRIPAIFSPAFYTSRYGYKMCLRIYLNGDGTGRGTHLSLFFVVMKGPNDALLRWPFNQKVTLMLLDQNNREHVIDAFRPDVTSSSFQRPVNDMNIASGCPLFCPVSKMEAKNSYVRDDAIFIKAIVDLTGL
Assay: SPR

Kd: 502 nM
B1: Recombinant human STING protein (natural protein, UniProt Q86WV6 135-379, looked up)
chain: GLKGLAPAEISAVCEKGNFNVAHGLAWSYYIGYLRLILPELQARIRTYNQHYNNLLRGAVSQRLYILLPLDCGVPDNLSMADPNIRFLDKLPQQTGDHAGIKDRVYSNSIYELLENGQRAGTCVLEYATPLQTLFAMSQYSQAGFSREDRLEQAKLFCRTLEDILADAPESQNNCRLIAYQEPADDSSFSLSQEVLRHLRQEEKEEVTVGSLKTSAVPSTSTMSQEPELLISGMEKPLPLRTDFS
